# Experimental data: patent US20260242478A1 (published 2026)
# Where no end group is shown, it is not given here.
# B1: Phage-265 (peptide)
# peptide: MDWCPRFMWDLCFA
# modifications: cysteine pairing not given here; also: displayed on phage as pIII fusion, fusion limits and linker not given here
# notes: Clonal phage of the Peptide-9 library, tested as crude phage supernatant; not shown: pIII of the bacteriophage
# B2: Phage-278 (peptide)
# peptide: MDWCPRSIWYLCFN
# modifications: cysteine pairing not given here; also: displayed on phage as fusion to pIII, fusion limits and linker not given here
# notes: as for B1
# Molecular target: T1, anti-CD28 scFv (VH - linker 1 - VL) (biotinylated (site not given))
# T1 construct: Biotinylated scFv captured on neutravidin coated plates in the panning ELISA
# Assay: phage ELISA as above; wells pre-incubated with soluble CD28 as competitor;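 further: crude clonal phage supernatants tested, with bound phage detected by HRP-conjugated anti-M13 antibody, and reference wells given blocking buffer without CD28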
# T1 sequence (scFv, as listed by the source): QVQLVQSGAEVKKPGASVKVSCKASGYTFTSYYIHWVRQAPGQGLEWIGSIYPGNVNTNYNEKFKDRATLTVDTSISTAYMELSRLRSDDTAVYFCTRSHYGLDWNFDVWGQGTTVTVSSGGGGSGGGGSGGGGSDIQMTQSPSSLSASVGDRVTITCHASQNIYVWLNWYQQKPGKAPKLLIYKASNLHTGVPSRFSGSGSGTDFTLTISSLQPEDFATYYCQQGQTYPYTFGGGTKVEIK
row,Binder,CD28 scFv signal in presence of CD28
1,MDWCPRDLWHECFN [Phage-103],0.218
2,MDWCPIYLWDECFN [Phage-106],0.215
3,MDWCPRDLWAECFN [Phage-107],0.207
4,MDWCPRSLWHYCFA [Phage-101],0.338
5,MDWCPRYLWAECFY [Phage-102],0.354
6,MDWCPRDLWDLCFF [Phage-104],0.156
7,MDWCPRYLWNVCFN [Phage-105],0.57
8,MDWCPRALWHECFT [Phage-108],0.191

# Molecular target: T2, anti-CD28 scFv (VH - linker 1 - VL) (biotinylated (site not stated))
# Assay: phage ELISA; biotinylated anti-CD28 scFv on neutravidin plate, clonal phage supernatant, anti-M13 HRP detection;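 further: before phage addition, wells were pre-incubated with blocking buffer plus soluble CD28 protein, or blocking buffer only, with no wash in between, signal reflects phage remaining bound after washing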
# T2 sequence (scFv, as listed by the source): as above
row,Binder,CD28 scFv signal
1,MDWCPPYLWYECFA [Phage-172],0.692
2,MDWCPMNLWSECFN [Phage-173],0.67
3,MDWCPKHLWNECFN [Phage-174],0.663
4,MDWCPAYLWAECFS [Phage-175],0.64
5,MDWCPSDLWHECFH [Phage-176],0.629
6,MDWCPVSLWDHCFN [Phage-177],0.616
7,LDWCPRDLWHVCFF [Phage-178],0.61
8,MDWCPWILWNECFN [Phage-179],0.581
9,MHWCPRYLWDECFN [Phage-180],0.55
10,MYWCPRDLWDVCFN [Phage-181],0.512
11,MHWCPRSLWNECYF [Phage-182],0.456
12,IDWCPRDLWALCFN [Phage-183],0.37
13,MHWCPINLWNECFS [Phage-184],0.316
14,QDWCPTYLWHHCFN [Phage-186],0.123
15,IGKLTLCLNADLVI [Phage-187],0.116
16,MDWCPSYLWDQCFF [Phage-188],0.083
17,VDWCPRYLWHVCYN [Phage-189],0.065
18,MDWCPRDMWAECFF [Phage-190],2.69
19,MDWCPRDMWYECFN [Phage-191],2.56
20,DVWCPKYMWSLCFN [Phage-192],2.53
21,MDWCPMDMWVNCFN [Phage-193],2.52
22,MDWCPSDMWHECYA [Phage-194],2.47
23,MDWCPKHMWFMCFN [Phage-195],2.4
24,MDWCPRYMWYQCFS [Phage-196],2.36

# Molecular target: T3, Anti-CD28 scFv (VH - linker 1 - VL) (biotinylated (site not stated))
# Assay: phage binding ELISA; biotinylated anti-CD28 scFv on neutravidin plate, clonal phage supernatant, anti-M13 HRP detection
# T3 sequence (scFv, as listed by the source): as above
row,Binder,CD28 scFv signal
1,"MDWCPRTLWYLCFN (peptide, not shown: large carriers) [Phage-60 clonal phage peptide]",2.59
2,"MVSCPTTMWNRCFN (peptide, not shown: large carriers) [Phage-61 clonal phage peptide]",1.33
3,"MDWCPSYLWNECFF (peptide, not shown: large carriers) [Phage-62 clonal phage peptide]",2
4,"MDWCPMYLWNECFN (peptide, not shown: large carriers) [Phage-65 clonal phage peptide]",2.61

# Molecular target: T4, Anti-CD28 scFv (VH - linker 1 - VL) (biotinylated (site not stated))
# T4 construct: Captured as biotinylated scFv on neutravidin plates in the panning ELISA
# Assay: phage ELISA: biotinylated anti-CD28 scFv on neutravidin plate, clonal phage supernatant, anti-M13-HRP detection;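 further: competition format: before phage supernatant was added, wells were preincubated with soluble CD28 protein or with blocking buffer only, and phage were added without an intervening wash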
# T4 sequence (scFv, as listed by the source): as above
row,Binder,CD28 scFv signal
1,MDWCPFDMWADCFF [Phage-391],2.53
2,MDWCPRDMWFECFN [Phage-393],2.42
3,MDWCPRYMWSDCFF [Phage-394],2.28
4,MDWCPKDMWAECFN [Phage-395],2.11
5,TDWCPRDMWYLCFN [Phage-396],2.11
6,MDWCPRAMWDYCFY [Phage-397],2.11
7,MDWCPRNMWNECFF [Phage-398],2.1
8,MDWCPRSMWDSCFN [Phage-399],2.02
9,MHWCPTYMWSECFA [Phage-400],1.84
10,MDWCPLDMWVLCFA [Phage-401],1.84
11,MDWCPRHMWHECFH [Phage-402],1.81

# Molecular target: T3, Anti-CD28 scFv (VH - linker 1 - VL)
# Assay: phage binding ELISA on captured anti-CD28 scFv; wells pre-incubated with soluble CD28 protein (competitor)
# Protocol: (§1) Clonal phage were harvested as crude supernatants and screened via standard enzyme linked immunosorbent assays (ELISAs). […] Prior to the addition of clonal phage, wells were incubated with blocking buffer and CD28 soluble protein or blocking buffer alone. Without washing or aspirating, clonal phage supernatants were then added to the wells and incubated for a short time. Wells were then washed followed by detection of bound phage using a horse radish peroxidase conjugated anti-M13 antibody.
row,Binder,CD28 scFv signal in presence of CD28
1,"MDWCPRTLWYLCFN (peptide, not shown: large carriers) [Phage-60 clonal phage peptide]",1.2
2,"MVSCPTTMWNRCFN (peptide, not shown: large carriers) [Phage-61 clonal phage peptide]",0.072
3,"MDWCPSYLWNECFF (peptide, not shown: large carriers) [Phage-62 clonal phage peptide]",0.133
4,"MDWCPMYLWNECFN (peptide, not shown: large carriers) [Phage-65 clonal phage peptide]",0.471

# Molecular target: T5, Anti-CD28 scFv (VH - linker 1 - VL) (biotinylated (site not stated))
# T5 construct: Biotinylated scFv captured on neutravidin coated plates in the panning ELISA
# Assay: phage ELISA as above, wells pre-incubated with soluble CD28 (competitor);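 further: ELISA of crude clonal phage supernatants added to wells pre-treated with soluble CD28 in blocking buffer, bound phage read out with HRP-conjugated anti-M13 antibody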
# T5 sequence (scFv, as listed by the source): as above
row,Binder,CD28 scFv signal in presence of CD28
1,MDWCPSDMWANCFF [Phage-389],0.316

# Molecular target: T4, Anti-CD28 scFv (VH - linker 1 - VL)
# Assay: as above
row,Binder,CD28 scFv signal in presence of CD28
1,MDWCPFDMWADCFF [Phage-391],0.215
2,MDWCPRDMWFECFN [Phage-393],0.778
3,MDWCPRYMWSDCFF [Phage-394],0.377
4,MDWCPKDMWAECFN [Phage-395],0.457
5,TDWCPRDMWYLCFN [Phage-396],0.301
6,MDWCPRAMWDYCFY [Phage-397],0.339
7,MDWCPRNMWNECFF [Phage-398],0.43
8,MDWCPRSMWDSCFN [Phage-399],0.142
9,MHWCPTYMWSECFA [Phage-400],0.161
10,MDWCPLDMWVLCFA [Phage-401],0.169
11,MDWCPRHMWHECFH [Phage-402],0.171

# Molecular target: Anti-CD28 scFv (VH - linker 1 - VL) (biotinylated (site not given))
# Assay: phage binding ELISA on anti-CD28 scFv plate; wells pre-incubated with soluble CD28 as competitor;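 further: clonal phage supernatants tested, bound phage read out with an HRP-linked anti-M13 antibody, reference wells received blocking buffer lacking CD28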
# Anti-CD28 scFv (VH - linker 1 - VL) (biotinylated (site not given)), sequence (scFv, as listed by the source): as above
row,Binder,CD28 scFv signal in presence of CD28
1,B1,0.725
2,B2,1.34

# Molecular target: T2, anti-CD28 scFv (VH - linker 1 - VL)
# Assay: phage ELISA as above, wells pre-incubated with soluble CD28 as competitor
# Protocol: as §1
row,Binder,CD28 scFv signal in presence of CD28
1,MDWCPPYLWYECFA [Phage-172],0.094
2,MDWCPMNLWSECFN [Phage-173],0.124
3,MDWCPKHLWNECFN [Phage-174],0.105
4,MDWCPAYLWAECFS [Phage-175],0.12
5,MDWCPSDLWHECFH [Phage-176],0.164
6,MDWCPVSLWDHCFN [Phage-177],0.1
7,LDWCPRDLWHVCFF [Phage-178],0.105
8,MDWCPWILWNECFN [Phage-179],0.137
9,MHWCPRYLWDECFN [Phage-180],0.127
10,MYWCPRDLWDVCFN [Phage-181],0.102
11,MHWCPRSLWNECYF [Phage-182],0.115
12,IDWCPRDLWALCFN [Phage-183],0.129
13,MHWCPINLWNECFS [Phage-184],0.098
14,QDWCPTYLWHHCFN [Phage-186],0.122
15,IGKLTLCLNADLVI [Phage-187],0.1
16,MDWCPSYLWDQCFF [Phage-188],0.079
17,VDWCPRYLWHVCYN [Phage-189],0.061
18,MDWCPRDMWAECFF [Phage-190],2.26
19,MDWCPRDMWYECFN [Phage-191],0.235
20,DVWCPKYMWSLCFN [Phage-192],0.418
21,MDWCPMDMWVNCFN [Phage-193],0.277
22,MDWCPSDMWHECYA [Phage-194],0.2
23,MDWCPKHMWFMCFN [Phage-195],0.372
24,MDWCPRYMWYQCFS [Phage-196],0.357
